# According to US20220411483A1 (Chugai, published 2022):
# Substitutions are numbered along the chain they refer to.
# B1: IL6R-P556/IL6R-L (antibody, human IgG1, kappa)
# heavy: QVQLQESGPGLVKPSETLSLTCAVSGHSISHDHAWSWVRQPPGEGLEWIGFISYSGITNYNPSLQGRVTISRDNSKNTLYLQMNSLRAEDTAVYYCARSLARTTAMDYWGEGTLVTVSSASTKGPSVFPLAPSSKSTSGGTAALGCLVKDYFPEPVTVSWNSGALTSGVHTFPAVLQSSGLYSLSSVVTVPSSSLGTQTYICNVNHKPSNTKVDKKVEPKSCDKTHTCPPCPAPDLLGDDSVFLFPPKPKDTLMISRTPEVTCVVVDVSDEDGEVKFNWYVDGVEVHNAKTKPREEQYNSTYRVVSVLTVLHQDWLNGKEYKCKVSNKALPAPIEKTISKAKGQPREPQVYTLPPSRDELTKNQVSLTCLVKGFYPSDIAVEWESNGQPENNYKTTPPVLDSDGSFFLYSKLTVDKSRWQQGNVFSCSVMHEALHNHYTQKSLSLSP
# light: not shown
# B2: IL6R-P562/IL6R-L (antibody, human IgG1, kappa)
# heavy: B1 heavy with D270E
# light: not shown
# B3: IL6R-P691/IL6R-L (antibody, human IgG1, kappa)
# heavy: B1 heavy with D235E, L237F, D239Q, F243M, D270H, G273P, Y298E
# light: not shown
# B4: IL6R-P733/IL6R-L (antibody, human IgG1, kappa)
# heavy: B1 heavy with D235E, L237F, D239Q, F243M, D270P, G273P, Y298E, S326H
# light: not shown
# B5: IL6R-P743/IL6R-L (antibody, human IgG1, kappa)
# heavy: B1 heavy with D235E, D239G, D270H, G273P, A329G, A332S, P333S
# light: not shown
# B6: IL6R-P746/IL6R-L (antibody, human IgG1, kappa)
# heavy: B1 heavy with D235E, L237F, D239Q, F243M, D270H, G273P, Y298E, K324A
# light: not shown
# B7: IL6R-P727/IL6R-L (antibody, human IgG1, kappa)
# heavy: B1 heavy with D235E, D239Q, F243M, D270P, G273P, Y298E, A332H
# light: not shown
# B8: IL6R-P745/IL6R-L (antibody, human IgG1, kappa)
# heavy: B1 heavy with D235E, D239G, D270H, G273P, S300A, K324E
# light: not shown
# B9: IL6R-P748/IL6R-L (antibody, human IgG1, kappa)
# heavy: B1 heavy with D235E, D239Q, F243M, D270P, G273P, Y298E, K324A, A332H
# light: not shown
# B10: IL6R-P559/IL6R-L (antibody, human IgG1, kappa)
# heavy: B1 heavy with D235E, D270E
# light: not shown
# B11: IL6R-P744/IL6R-L (antibody, human IgG1, kappa)
# heavy: B1 heavy with D235E, D239G, D270H, G273P, S300A, K324A
# light: not shown
# B12: IL6R-P588/IL6R-L (antibody, human IgG1, kappa)
# heavy: B1 heavy with D235E, D239G, V266I, S269A, D270E
# light: not shown
# B13: IL6R-P737/IL6R-L (antibody, human IgG1, kappa)
# heavy: B1 heavy with D235E, D239Q, F243M, D270P, G273P, Y298E, S326H, A332H
# light: not shown
# B14: IL6R-P747/IL6R-L (antibody, human IgG1, kappa)
# heavy: B1 heavy with D235E, L237F, D239Q, F243M, D270H, G273P, Y298E, K324E
# light: not shown
# B15: IL6R-P729/IL6R-L (antibody, human IgG1, kappa)
# heavy: B1 heavy with D235E, L237F, D239Q, F243M, D270P, G273P, Y298E
# light: not shown
# Target: T1, human FcγRIIa H type extracellular domain with C-terminal His tag (human, UniProt P12318 34-217)
# T1 construct: extracellular domain; also called FcgRIIaH
# T1 sequence (looked up): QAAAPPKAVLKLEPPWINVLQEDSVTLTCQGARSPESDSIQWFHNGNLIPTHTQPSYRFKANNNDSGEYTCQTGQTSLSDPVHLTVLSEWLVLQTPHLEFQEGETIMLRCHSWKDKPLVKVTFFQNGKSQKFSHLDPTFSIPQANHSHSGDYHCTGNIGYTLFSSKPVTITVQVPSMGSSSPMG
# Assay: SPR, KD of IL6R-G1d/IL6R-L divided by KD of variant
row,Binder,Relative FcgRIIaH-binding Activity
1,B1,0.019
2,B2,0.022
3,B3,0.01
4,B4,0.014
5,B5,0.013
6,B6,0.01
7,B7,0.015
8,B8,0.014
9,B9,0.01
10,B10,0.021
11,B11,0.013
12,B12,0.034
13,B13,0.016
14,B14,0.012
15,B15,0.013

# Target: T2, human FcγRIIb extracellular domain with C-terminal His tag (human, UniProt P31994 43-217)
# T2 construct: extracellular domain; also called FcgRIIb
# T2 sequence (looked up): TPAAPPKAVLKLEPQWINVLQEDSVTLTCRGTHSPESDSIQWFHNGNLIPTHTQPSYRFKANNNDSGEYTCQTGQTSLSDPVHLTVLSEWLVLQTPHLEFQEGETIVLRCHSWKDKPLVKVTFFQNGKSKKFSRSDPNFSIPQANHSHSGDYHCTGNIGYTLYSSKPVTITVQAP
# Assay: as above
row,Binder,Relative FcgRIIb-binding Activity
1,B1,11.7
2,B2,16.2
3,B3,0.9
4,B4,0.5
5,B5,0.6
6,B6,0.7
7,B7,0.8
8,B8,0.7
9,B9,0.3
10,B10,15
11,B11,0.7
12,B12,55.3
13,B13,0.5
14,B14,0.8
15,B15,0.7

# Target: T3, human FcγRIIa R type extracellular domain with C-terminal His tag (human, UniProt P12318 34-217)
# T3 construct: extracellular domain; also called FcgRIIaR
# T3 sequence (looked up): T1 sequence (looked up) with H134R
# Assay: as above
row,Binder,Relative FcgRIIaR-binding Activity
1,B1,0.46
2,B2,0.55
3,B3,0.04
4,B4,0.08
5,B5,0.06
6,B6,0.06
7,B7,0.03
8,B8,0.04
9,B9,0.03
10,B10,0.46
11,B11,0.06
12,B12,0.69
13,B13,0.03
14,B14,0.04
15,B15,0.07

# Target: T4, human FcγRIa extracellular domain with C-terminal His tag (human, UniProt P12314 16-292)
# T4 construct: Whole entry named; also called FcgRIa
# T4 sequence (P12314 16-292): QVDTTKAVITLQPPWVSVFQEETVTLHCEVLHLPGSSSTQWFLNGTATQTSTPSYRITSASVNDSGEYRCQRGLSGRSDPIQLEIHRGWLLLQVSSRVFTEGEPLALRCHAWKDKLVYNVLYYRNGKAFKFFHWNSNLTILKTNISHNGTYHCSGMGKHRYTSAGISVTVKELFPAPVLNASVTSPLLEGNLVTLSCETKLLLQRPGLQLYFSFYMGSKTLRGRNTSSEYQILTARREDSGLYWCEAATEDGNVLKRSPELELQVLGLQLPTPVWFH
# Assay: as above
row,Binder,Relative FcgRIa-binding Activity
1,B1,0.086
2,B2,0.076
3,B3,0.002
4,B4,0.002
5,B5,0.018
6,B6,0.043
7,B7,0.005
8,B8,0.064
9,B9,0.003
10,B10,0.035
11,B11,0.032
12,B12,0.229
13,B13,0.007
14,B14,0.004
15,B15,0.001

# Target: T5, human FcγRIIIa V type extracellular domain with C-terminal His tag (human, UniProt P08637 17-208)
# T5 construct: extracellular domain; also called FcgRIIIaV
# T5 sequence (P08637 17-208 F176V): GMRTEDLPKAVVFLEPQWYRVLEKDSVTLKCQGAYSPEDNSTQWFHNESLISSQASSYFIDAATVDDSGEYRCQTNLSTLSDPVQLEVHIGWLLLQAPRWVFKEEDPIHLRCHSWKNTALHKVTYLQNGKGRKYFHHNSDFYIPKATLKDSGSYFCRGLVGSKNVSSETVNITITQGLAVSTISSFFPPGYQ
# Assay: as above
row,Binder,Relative FcgRIIIaV-binding Activity
1,B1,0.007
2,B2,0.007
3,B3,0.004
4,B4,0.007
5,B5,0.006
6,B6,0.005
7,B7,0.007
8,B8,0.007
9,B9,0.005
10,B10,0.009
11,B11,0.007
12,B12,0.011
13,B13,0.007
14,B14,0.006
15,B15,0.006

# Target: T2, human FcγRIIb extracellular domain with …
# Assay: SPR, antibody captured, FcgR analyte
row,Binder,Kd
1,B1,0.18 µM
2,B2,0.13 µM
3,B3,2.3 µM
4,B4,4.5 µM
5,B5,3.6 µM
6,B6,3 µM
7,B7,2.7 µM
8,B8,3.1 µM
9,B9,6.2 µM
10,B10,0.14 µM
11,B11,3.2 µM
12,B12,0.038 µM
13,B13,4.3 µM
14,B14,2.7 µM
15,B15,3 µM

# Target: T3, human FcγRIIa R type extracellular …
# Assay: SPR, antibody captured, FcgR analyte
row,Binder,Kd
1,B1,2.4 µM
2,B2,2 µM
3,B3,28 µM
4,B4,13 µM
5,B5,20 µM
6,B6,18 µM
7,B7,34 µM
8,B8,26 µM
9,B9,39 µM
10,B10,2.4 µM
11,B11,18 µM
12,B12,1.6 µM
13,B13,37 µM
14,B14,27 µM
15,B15,16 µM

# Target: T4, human FcγRIa extracellular domain with …
# Assay: SPR, antibody captured, FcgR analyte
row,Binder,Kd
1,B1,0.0037 µM
2,B2,0.0042 µM
3,B3,0.13 µM
4,B4,0.2 µM
5,B5,0.018 µM
6,B6,0.0074 µM
7,B7,0.071 µM
8,B8,0.005 µM
9,B9,0.1 µM
10,B10,0.0091 µM
11,B11,0.01 µM
12,B12,0.0014 µM
13,B13,0.046 µM
14,B14,0.09 µM
15,B15,0.22 µM
